# Laboratory results published in patent publication US20020102268A1.
# Target: uncleaved bovine spleen PARP (poly(ADP-ribose) polymerase) (UniProt P18493)
# Sequence of UniProt P18493 (P18493 2-1016): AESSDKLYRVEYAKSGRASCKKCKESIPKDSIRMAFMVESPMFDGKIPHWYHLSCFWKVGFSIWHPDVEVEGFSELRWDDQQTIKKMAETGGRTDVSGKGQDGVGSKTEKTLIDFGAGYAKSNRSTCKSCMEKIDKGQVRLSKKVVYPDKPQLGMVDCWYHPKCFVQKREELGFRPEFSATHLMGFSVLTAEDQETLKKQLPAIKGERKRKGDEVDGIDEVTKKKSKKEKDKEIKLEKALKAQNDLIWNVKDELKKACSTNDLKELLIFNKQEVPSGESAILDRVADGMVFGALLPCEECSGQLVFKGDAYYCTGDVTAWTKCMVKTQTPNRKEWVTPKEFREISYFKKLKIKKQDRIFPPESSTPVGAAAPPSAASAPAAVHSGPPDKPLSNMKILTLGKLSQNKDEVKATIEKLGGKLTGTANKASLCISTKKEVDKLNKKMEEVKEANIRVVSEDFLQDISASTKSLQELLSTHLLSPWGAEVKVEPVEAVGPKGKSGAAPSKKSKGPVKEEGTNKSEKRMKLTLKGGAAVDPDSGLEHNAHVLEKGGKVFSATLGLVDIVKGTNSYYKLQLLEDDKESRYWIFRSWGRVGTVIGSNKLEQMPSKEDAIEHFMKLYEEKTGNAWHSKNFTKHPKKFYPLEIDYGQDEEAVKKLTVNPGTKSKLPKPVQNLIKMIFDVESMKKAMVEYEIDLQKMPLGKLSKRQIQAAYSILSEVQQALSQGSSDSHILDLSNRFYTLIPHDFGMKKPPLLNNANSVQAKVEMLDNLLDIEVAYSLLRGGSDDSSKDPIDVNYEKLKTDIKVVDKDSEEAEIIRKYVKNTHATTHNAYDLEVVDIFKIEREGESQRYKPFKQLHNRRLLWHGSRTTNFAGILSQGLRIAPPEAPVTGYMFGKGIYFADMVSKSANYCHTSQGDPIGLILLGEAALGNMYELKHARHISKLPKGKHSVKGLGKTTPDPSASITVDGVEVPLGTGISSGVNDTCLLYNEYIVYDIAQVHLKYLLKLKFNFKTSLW
substance,measurement,value
recombinant CPP32 (caspase 3),"cleavage of PARP, seen on Western blot",two bands corresponding to uncleaved and cleaved PARP were visualized in the cleaved sample
